The test has as its target chaperone receptors within native chloroplast membranes (dynamic TIRE). The test can be described thus: total internal reflection ellipsometry (TIRE); dynamic: pea chloroplast membranes on Cr/Au slides; time course of Δ at 700 nm over 15 min at chaperone concentrations from 1 to 10 µg/ml in 100 mM Tris-HCl pH 8.0; 1/τ against concentration fitted to a line, KA = ka/kd.

Sequence of Hsp70-1 (At5g02500), full length (P22953 whole entry): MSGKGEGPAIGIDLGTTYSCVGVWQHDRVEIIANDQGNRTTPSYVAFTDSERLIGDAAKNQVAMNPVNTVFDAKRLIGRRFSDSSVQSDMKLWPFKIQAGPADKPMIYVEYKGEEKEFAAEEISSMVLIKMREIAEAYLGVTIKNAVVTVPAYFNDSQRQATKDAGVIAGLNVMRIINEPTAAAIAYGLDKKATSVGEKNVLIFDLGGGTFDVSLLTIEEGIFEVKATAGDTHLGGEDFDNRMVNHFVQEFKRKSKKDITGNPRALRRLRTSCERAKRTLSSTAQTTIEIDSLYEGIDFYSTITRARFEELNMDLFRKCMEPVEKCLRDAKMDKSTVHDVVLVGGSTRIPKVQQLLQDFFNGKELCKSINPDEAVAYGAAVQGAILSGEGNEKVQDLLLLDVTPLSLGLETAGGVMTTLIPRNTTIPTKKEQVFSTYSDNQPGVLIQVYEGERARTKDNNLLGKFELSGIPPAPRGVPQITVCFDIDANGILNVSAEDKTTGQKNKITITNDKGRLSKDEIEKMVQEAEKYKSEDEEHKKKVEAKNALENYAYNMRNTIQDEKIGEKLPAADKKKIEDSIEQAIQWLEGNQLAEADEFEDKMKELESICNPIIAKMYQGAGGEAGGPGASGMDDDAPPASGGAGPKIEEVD
Sequence of Hsp90-2 (At5g56030), full length (P55737 whole entry): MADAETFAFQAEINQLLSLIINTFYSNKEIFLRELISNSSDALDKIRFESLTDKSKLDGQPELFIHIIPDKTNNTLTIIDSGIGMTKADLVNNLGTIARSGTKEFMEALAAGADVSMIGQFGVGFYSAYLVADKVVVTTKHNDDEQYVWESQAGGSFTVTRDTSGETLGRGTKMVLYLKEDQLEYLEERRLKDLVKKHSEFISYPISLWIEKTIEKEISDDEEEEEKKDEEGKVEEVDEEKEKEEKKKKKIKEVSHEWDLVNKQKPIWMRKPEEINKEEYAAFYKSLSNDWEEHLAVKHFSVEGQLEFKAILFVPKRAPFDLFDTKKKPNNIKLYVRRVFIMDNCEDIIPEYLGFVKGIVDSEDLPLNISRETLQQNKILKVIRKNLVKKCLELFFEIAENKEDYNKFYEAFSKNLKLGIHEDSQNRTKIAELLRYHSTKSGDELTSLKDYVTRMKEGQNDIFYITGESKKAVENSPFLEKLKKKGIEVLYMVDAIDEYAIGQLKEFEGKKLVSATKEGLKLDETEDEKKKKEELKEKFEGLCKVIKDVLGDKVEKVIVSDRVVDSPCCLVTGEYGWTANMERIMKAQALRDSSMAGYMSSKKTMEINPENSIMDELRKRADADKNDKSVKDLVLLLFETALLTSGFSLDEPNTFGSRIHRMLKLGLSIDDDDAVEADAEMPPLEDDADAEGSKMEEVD

Turning to “Hsp70-1 (At5g02500), full length (from UniProt P22953 1-651) (natural protein)”, the Ka came out at 9.15e+06 M⁻¹.
“Hsp90-2 (At5g56030), full length (from UniProt P55737 1-699) (natural protein)” returned a Ka of 8.74e+06 M⁻¹.

The values above are taken from paper PMC3315527.
